This assay concerns the target T1, GST-Flag-SASPase 28 kDa recombinant protein (human) (UniProt Q53RT3).
T1 sequence: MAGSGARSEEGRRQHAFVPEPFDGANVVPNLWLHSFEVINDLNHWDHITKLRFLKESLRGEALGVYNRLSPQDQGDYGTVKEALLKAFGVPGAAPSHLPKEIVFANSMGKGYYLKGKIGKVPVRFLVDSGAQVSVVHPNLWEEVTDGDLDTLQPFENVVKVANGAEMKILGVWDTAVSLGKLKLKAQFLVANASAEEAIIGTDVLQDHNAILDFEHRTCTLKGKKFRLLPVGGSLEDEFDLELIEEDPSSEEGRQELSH

B1: recombinant protein FLG2Nter (aa 2-213) (domain or fragment)
chain: TDLLRSVVTVIDVFYKYTKQDGECGTLSKGELKELLEKELHPVLKNPDDPDTVDVIMHMLDRDHDRRLDFTEFLLMIFKLTMACNKVLSKEYCKASGSKKHRRGHRHQEEESETEEDEEDTPGHKSGYRHSSWSEGEEHGYSSGHSRGTVKCRHGSNSRRLGRQGNLSSSGNQEGSQKRYHRSSCGHSWSGGKDRHGSSSVELRERINKSHI
For the molecule B1, the SASPase activity on Dabcyl-QIDRIMEK-Glu(Edans)-NH2 (0.1 mM), pH 5.5, 0.5 μM SASPase 28, FLG2Nter at ratios from 1.25 to 10; fold against the protease alone was 10 fold.

The record behind these values is PMC7241785.
